Where a chain is given by its changes, count along the chain named.
B1: anti-TIM-3 antibody clone 1B9 (antibody, V domains shown)
VH: QVQLQQWGAGLLKPSETLSLTCAVYGGSFSGYYWSWIRQPPGKGLEWIGEINHSGSTNYNPSLKSRVTISVDTSKNQFSLKLSSVTAADTAVYYCARGYVAGSDAWGQGTLVTVSS
VL: QSVLTQPPSVSAAPGQKVTISCSGSSSNIGNNYVSWYQQLPGTAPKLLIYGNNWRPSGIPDRFSGSKSGTSATLGITGLQTGDEADYYCEAWDYYVAAGYFGGGTKLTVL
B2: anti-TIM-3 antibody clone 1H9 (antibody, V domains shown)
VH: B1 VH with S103F, A105D
VL: B1 VL with E90D, A91S, Y94S, Y95A, V96D, A98S, Y100V
B3: anti-TIM-3 antibody clone 1D9 (antibody, V domains shown)
VH: B1 VH with V100Y, S103D, A105Y
VL: B1 VL with Y94S, Y95A, V96Y, Y100S
B4: anti-TIM-3 antibody clone 1F4 (antibody, V domains shown)
VH: B1 VH with S103Y, A105Y
VL: B1 VL with E90D, A91S, Y94A, Y95A, V96L, A97S, Y100V
B5: anti-TIM-3 antibody clone 2G6 (antibody, V domains shown)
VH: B1 VH with S103F, A105S
VL: B1 VL with E90D, A91S, Y94S, Y95S, V96D, A97S, A98S, Y100V
B6: anti-TIM-3 antibody clone 2F4 (antibody, V domains shown)
VH: B1 VH
VL: B1 VL with A91S, Y95D, V96Y, A98S, Y100V
B7: anti-TIM-3 antibody clone 2C7 (antibody, V domains shown)
VH: B1 VH with S103Y, A105Y
VL: B1 VL with E90D, A91S, Y94S, V96L, Y100V
B8: anti-TIM-3 antibody clone 1H10 (antibody, V domains shown)
VH: B1 VH with S103F, A105S
VL: B1 VL with E90D, A91S, Y95D, V96Y, Y100V

target: T1, human TIM-3 coupled to Fc (human, UniProt Q8TDQ0 22-200); assay: SPR; culture supernatant

Binder	koff [s⁻¹]
B1	4.3e-05
B2	0.00016
B3	0.00018
B4	0.0003
B5	0.00013
B6	8.7e-05
B7	0.00021
B8	2.9e-05

target: T1, human TIM-3 coupled to Fc; assay: SPR; crude periplasmic extract

Binder	koff [s⁻¹]
B1	2.8e-05
B2	7e-05
B3	0.00018
B4	0.00029
B5	0.00022
B6	0.00014
B7	0.00019
B8	2.3e-05

— patent US20200055935A1 (published 2020)
